Measured values taken from publication PMC7530003 (Developmental cell, 2020).

Molecular target: F-actin prepared by polymerizing β-actin (UniProt P60709 1-375)
Assay: co-sedimentation

Kd: ~10 µM
B1: ZO-1 ABR construct for co-sedimentation (EGFP-ZO-1(1159–1382)-Dual Strep) (domain or fragment, human, UniProt Q07157 1159-1382, looked up)
chain: EQPAPGYDTHGRLRPEAQPHPSAGPKPAESKQYFEQYSRSYEQVPPQGFTSRAGHFEPLHGAAAVPPLIPSSQHKPEALPSNTKPLPPPPTQTEEEEDPAMKPQSVLTRVKMFENKRSASLETKKDVNDTGSFKPPEVASKPSGAPIIGPKPTSQNQFSEHDKTLYRIPEPQKPQLKPPEDIVRSNHYDPEEDEEYYRKQLSYFDRRSFENKPPAHIAASHLSE
